Consider one substance from US20030232753A1.

Among the targets are H6-tTF219-cys-C′ (human) (UniProt P13726); H6-tTF220-cys-C′ (human) (UniProt P13726); tTF220-cys-C′ (human) (UniProt P13726); tTF221-cys-C′ (human) (UniProt P13726).
Common to all, as to assay: cell-based or functional assay
Experiment [1] addresses H6-tTF221-cys-C′ (human) (UniProt P13726).
Experiment [2] deals with H6-N′-cys-tTF219 dimer (human) (UniProt P13726).
The target in experiment [3] is H6-tTF221-cys-C′ dimer (human) (UniProt P13726).
The target of experiment [4] is tTF219, truncated Tissue Factor (extracellular domain of mature Tissue Factor, amino acids 1-219) (human) (UniProt P13726).
Experiment [5] concerns the target IgG-H6-N′-cys-tTF219 (human) (UniProt P13726).
For experiment [6], the target named is H6-tTF221-cys-C′ (human) (UniProt P13726). This is another data set of the same source.
The target in experiment [7] is H6-N′-cys-tTF219 (human) (UniProt P13726).
Experiment [8] addresses tTF219, truncated Tissue Factor (extracellular domain of mature Tissue Factor, amino acids 1-219) (human) (UniProt P13726). The source holds these as a separate data set.
For experiment [9] the target is unchanged. The source holds these as a separate data set.
Experiment [10] has as its target IgG-H6-N′-cys-tTF219 (human) (UniProt P13726). This is another data set of the same source.
For experiment [11], the target named is H6-N′-cys-tTF219 (human) (UniProt P13726). The source holds these as a separate data set.
Experiment [12] deals with tTF219, truncated Tissue Factor (extracellular domain of mature Tissue Factor, amino acids 1-219) (human) (UniProt P13726). The source holds these as a separate data set.

Where “and” joins values, the source holds several entries; their conditions need not be identical. Identical values can stand only once. Like-named read-outs stand apart in the source and are kept apart here.

Chain of IgG-H6-N′-cys-tTF219 (human) (P13726 other isoform, or with tags, fused parts or gaps limits assumed): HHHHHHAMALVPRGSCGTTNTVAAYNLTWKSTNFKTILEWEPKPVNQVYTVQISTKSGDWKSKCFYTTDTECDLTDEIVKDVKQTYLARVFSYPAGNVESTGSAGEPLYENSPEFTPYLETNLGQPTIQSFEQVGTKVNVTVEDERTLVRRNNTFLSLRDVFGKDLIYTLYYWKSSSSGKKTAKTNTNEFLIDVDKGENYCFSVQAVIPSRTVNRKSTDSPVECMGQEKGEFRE
Chain of tTF219, truncated Tissue Factor (extracellular domain of mature Tissue Factor, amino acids 1-219) (human) (P13726 other isoform, or with tags, fused parts or gaps): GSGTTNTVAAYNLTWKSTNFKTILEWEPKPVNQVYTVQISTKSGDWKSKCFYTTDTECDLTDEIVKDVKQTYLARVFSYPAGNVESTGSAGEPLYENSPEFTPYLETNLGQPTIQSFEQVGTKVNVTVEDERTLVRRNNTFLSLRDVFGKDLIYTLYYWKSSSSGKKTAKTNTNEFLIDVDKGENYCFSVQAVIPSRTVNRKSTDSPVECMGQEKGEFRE
Chain of H6-tTF221-cys-C′ (human) (P13726 other isoform, or with tags, fused parts or gaps limits assumed): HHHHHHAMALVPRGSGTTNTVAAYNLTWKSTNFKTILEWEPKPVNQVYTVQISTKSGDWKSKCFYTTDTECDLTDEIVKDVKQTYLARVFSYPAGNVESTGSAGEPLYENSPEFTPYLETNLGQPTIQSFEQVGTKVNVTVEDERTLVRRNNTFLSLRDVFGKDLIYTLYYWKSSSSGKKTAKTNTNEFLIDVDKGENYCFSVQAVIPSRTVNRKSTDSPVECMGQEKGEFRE
Chain of tTF221-cys-C′ (human) (P13726 other isoform, or with tags, fused parts or gaps): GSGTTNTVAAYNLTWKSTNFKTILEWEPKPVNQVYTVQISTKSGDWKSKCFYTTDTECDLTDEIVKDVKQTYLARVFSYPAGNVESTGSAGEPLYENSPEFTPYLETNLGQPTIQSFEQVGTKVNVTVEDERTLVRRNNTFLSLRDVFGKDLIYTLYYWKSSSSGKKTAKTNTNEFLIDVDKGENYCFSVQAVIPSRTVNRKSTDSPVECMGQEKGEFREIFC
Chain of tTF220-cys-C′ (human) (P13726 other isoform, or with tags, fused parts or gaps): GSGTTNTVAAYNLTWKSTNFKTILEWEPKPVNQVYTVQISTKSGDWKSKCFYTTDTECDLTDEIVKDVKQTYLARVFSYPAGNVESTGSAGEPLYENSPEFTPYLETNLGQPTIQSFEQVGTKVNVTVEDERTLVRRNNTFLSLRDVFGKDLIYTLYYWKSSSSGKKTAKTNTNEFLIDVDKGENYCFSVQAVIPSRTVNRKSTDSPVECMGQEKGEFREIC
Chain of H6-tTF219-cys-C′ (human) (P13726 other isoform, or with tags, fused parts or gaps): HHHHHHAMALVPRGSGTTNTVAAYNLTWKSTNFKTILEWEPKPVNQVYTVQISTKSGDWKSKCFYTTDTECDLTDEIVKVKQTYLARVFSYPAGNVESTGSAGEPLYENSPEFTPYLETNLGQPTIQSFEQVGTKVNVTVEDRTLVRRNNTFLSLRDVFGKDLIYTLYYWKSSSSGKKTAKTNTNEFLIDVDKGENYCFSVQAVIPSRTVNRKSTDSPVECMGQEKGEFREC

On to “B21-2/10H10 bispecific antibody (Fab′ arm of the B21-2 antibody, specific for I-A^d, linked to the Fab′ arm of the 10H10 antibody, specific for tTF)”, for which the tTF concentration giving coagulation in 50 seconds is 1 nM in the experiment with H6-tTF221-cys-C′ (human) [1]; 100 pM and 200 pM in experiment [2]; 4 nM in experiment [3]; 100 pM and 200 pM in experiment [4]; 3 nM with H6-tTF219-cys-C′ (human); 500 pM with H6-tTF220-cys-C′ (human). Further, the tTF concentration giving coagulation in 50 seconds with H6-tTF221-cys-C′ (human) [6] turned out to be 500 pM; in the experiment with tTF220-cys-C′ (human), 500 pM; with H6-N′-cys-tTF219 (human) [7], 3 nM; with tTF221-cys-C′ (human) it was 500 pM; in [8] it was 500 pM; in experiment [9], 3 nM. Also, the tTF concentration giving coagulation in 50 seconds in experiment [10] was found to be 5 nM; in the experiment with H6-N′-cys-tTF219 (human) [11], 1 nM; in experiment [12] it was 1 nM. In experiment [3], the fold less active than H6-tTF221-cys-C′ monomer or tTF219 at inducing coagulation is 4 fold. In experiment [5], this substance displayed a fold less active than H6-N′-cys-tTF219 at inducing Xa formation of 2 fold. The substance also returned a clotting time in experiment [8] of 60 s. Besides, in [8], the clotting time (time for the first fibrin strands to form), mouse plasma on A20 cells was 36 s. For the same substance, the fold reduction of coagulation inducing activity relative to unconjugated H6-N′-cys-tTF219 or tTF219 in [10] was 5 fold.
